Columns and labels:
[1] = system: human UM-UC-1 bladder cancer cell line; test: Conditional survival study (tumor growth delay) in UM-UC-1 bladder cancer xenograft mice; type: in vivo; settings: administered as single agent
Description: Efficacy was assessed using tumor growth delay in a conditional survival study.

[2] = system: other FGFRs; settings: cited from earlier work
[3] = system: cancers expressing both wild-type and genetically activated forms of FGFR3; settings: Du 2011; cited from earlier work
[4] = Phase 1b/2 study of B-701 and docetaxel in advanced UCC, Cohort 1: safety; settings: Cohort 1, n=19, B-701 given with docetaxel
Description: Docetaxel was administered intravenously over approximately 60 minutes at a dosage of 75 mg/m^2. […] Administration was carried out every 3 weeks (q3w). […] The primary objective was to evaluate progression-free survival (PFS) and safety. Secondary objectives included evaluation of overall response rate (ORR), duration of response (DOR), disease control rate (DCR), and overall survival (OS). Each of these objectives was evaluated for correlations with FGFR3 expression and/or FGFR3 mutations/fusions.

[5] = resolved after docetaxel was discontinued

## Nc1ccn([C@@H]2O[C@H](CO)[C@@H](O)C2(F)F)c(=O)n1 [gemcitabine]
[1]
  survival of tumor bearing UM-UC-1 xenograft mice: significantly extended survival

## B-701: human FGFR3 antagonistic monoclonal antibody MFGR1877S (CAS No. 1312305-12-6), human IgG1 backbone; heavy chain SEQ ID NO:9, light chain SEQ ID NO:10
[1]
  survival of tumor bearing UM-UC-1 xenograft mice: significantly extended survival
[2]
  cross-reactivity with other FGFRs: no cross-reactivity
[3]
  efficacy: efficacious
[4]
  Grade 3 or higher AE related to B-701: Colitis, # of subjects: 1 subjects
  Grade 3 or higher AE related to B-701: Colitis, % of subjects: (5%)
  Grade 3 or higher AE related to B-701: DIC, # of subjects: 1 subjects
  Grade 3 or higher AE related to B-701: DIC, % of subjects: (5%)
  Grade 3 or higher AE related to B-701: Decreased WBCs, # of subjects: 2 subjects
  Grade 3 or higher AE related to B-701: Decreased WBCs, % of subjects: (11%)
  Grade 3 or higher AE related to B-701: Decreased lymphocytes, # of subjects: 1 subjects
  Grade 3 or higher AE related to B-701: Decreased lymphocytes, % of subjects: (5%)
  Grade 3 or higher AE related to B-701: Decreased neutrophil count, # of subjects: 4 subjects
  Grade 3 or higher AE related to B-701: Decreased neutrophil count, % of subjects: (21%)
  Grade 3 or higher AE related to B-701: Diarrhea, # of subjects: 1 subjects
  Grade 3 or higher AE related to B-701: Diarrhea, % of subjects: (5%)
  Grade 3 or higher AE related to B-701: Fatigue, # of subjects: 1 subjects
  Grade 3 or higher AE related to B-701: Fatigue, % of subjects: (5%)
  Grade 3 or higher AE related to B-701: Hyponatremia, # of subjects: 1 subjects
  Grade 3 or higher AE related to B-701: Hyponatremia, % of subjects: (5%)
  Grade 3 or higher AE related to B-701: Thrombocytopenia, # of subjects: 1 subjects
  Grade 3 or higher AE related to B-701: Thrombocytopenia, % of subjects: (5%)
[4]; [5]
  Grade 3 or higher AE related to B-701: ALT elevation, # of subjects: 1 subjects
  Grade 3 or higher AE related to B-701: ALT elevation, % of subjects: (5%)
  Grade 3 or higher AE related to B-701: AST elevation, # of subjects: 1 subjects
  Grade 3 or higher AE related to B-701: AST elevation, % of subjects: (5%)

## CC(=O)O[C@H]1C(=O)[C@@]2(C)[C@H]([C@H](OC(=O)c3ccccc3)[C@]3(O)C[C@H](OC(=O)[C@H](O)[C@@H](NC(=O)c4ccccc4)c4ccccc4)C(C)=C1C3(C)C)[C@]1(OC(C)=O)CO[C@@H]1C[C@@H]2O [paclitaxel]
[1]
  survival of tumor bearing UM-UC-1 xenograft mice: significantly extended survival

— patent US20200308286A1, “METHODS, COMPOSITIONS, AND KITS FOR TREATMENT OF CANCER” (Fusion Pharmaceuticals, Inc., priority 2017, published 2020)
